From patent US10793872B2, “HPPD variants and methods of use” (Bayer CropScience AG, priority 2012, dated 2020)
Where two headings read alike, the source gives them in different places.

Key:
[1] = molecular target: Pseudomonas aeruginosa (strain ATX22717) HPPD Axmi305H, native, SEQ ID NO:57 (Pseudomonas aeruginosa, UniProt Q9I576); assay: HPPD coupling assay, Axmi305H
[2] = molecular target: T1, Pseudomonas fluorescens HPPD variant CO210d10, SEQ ID NO:9 (Pseudomonas sp., UniProt P80064, E334P/G335S/K338T); assay: biochemical; conditions: read-out: pI50 (converted)
T1 construct: CO210d10; […]; Ala + His6 directly after the start Met (N); made in house; host or cells: E. coli

[3] = molecular target: T2, Pseudomonas fluorescens HPPD variant CO212f3, SEQ ID NO:10 (Pseudomonas sp., UniProt P80064, A339V/E334G/G335W); assay: biochemical; conditions: read-out: pI50 (converted)
T2 construct: CO212f3; […]; Ala + His6 directly after the start Met (N); made in house; host or cells: E. coli

[4] = molecular target: T3, Pseudomonas fluorescens HPPD variant PfHPPDEvo36 (serine for glutamic acid at 335, serine for tryptophan at 336, threonine for lysine at 339, glutamine for alan (Pseudomonas sp., UniProt P80064, A339Q/E334S/G335S/K338T)); assay type: biochemical
T3 construct: made in house; host or cells: E. coli (DH5alpha for library screening)
Procedure: The theoretical diversity of this library was 640. Screening was carried out as described in Example 3.

[5] = molecular target: Pseudomonas aeruginosa HPPD Axmi305H (SEQ ID NO:57) variant Axmi305H-Evo41 (Pseudomonas aeruginosa, UniProt Q9I576, A342Q/E337P/G338W/K341A); assay: biochemical
Procedure: This method is called the HGD assay.
The mutants generated by this approach were transformed into B121-DE3* cells and grown to saturation in LB media. […] By this method, active HPPD enzyme will produce a brown pigment after approximately 24 hours of growth on plates.

[6] = molecular target: T4, Pseudomonas fluorescens HPPD variant PfHPPDEvo36 (serine for glutamic acid at 335, serine for tryptophan at 336, threonine for lysine at 339, glutamine for alanine at 340 relative to PfG336W), SEQ ID NO:7 (Pseudomonas sp., UniProt P80064, A339Q/E334S/G335S/K338T); assay: biochemical
T4 construct: made in house; host or cells: E. coli (DH5alpha for library screening)

[7] = molecular target: T5, Pseudomonas fluorescens HPPD variant C024H11, SEQ ID NO:5 (Pseudomonas sp., UniProt P80064, G335W/P214L); assay: biochemical
T5 construct: C024H11; […]; made in house; host or cells: E. coli (DH5alpha for library screening)

[8] = molecular target: Pseudomonas fluorescens HPPD variant PfHPPDEvo40, SEQ ID NO:8 (Pseudomonas sp., UniProt P80064, A339E/E334P/G335S); assay: HPPD inhibition, HPLC based assay, PfHPPDEvo40
[9] = molecular target: T2, Pseudomonas fluorescens HPPD variant CO212f3, SEQ ID NO:10; assay: biochemical
[10] = system: Soybean plants; assay: Spray test of soybean plants expressing HPPD for tolerance to tembotrione; assay type: in vivo; conditions: tembotrione (LAUDIS SC) 184 grams/hectare, one week after spraying; for Number of plants rated +: + = completely bleached; for Number of plants rated ++ or +++: slight tolerance or very little effect
Procedure: Soybean plants expressing an HPPD inhibitor tolerant enzyme of the present invention, along with a gene conferring tolerance to glyphosate and a gene conferring tolerance to glufosinate, were tested for tolerance to tembotrione. A DeVries Tracker Sprayer was calibrated prior to each spraying. The chemical formulation used for tembotrione testing was LAUDIS® SC formulation. Spray tests were conducted using 184 grams/hectare; 34.5% TBT. Tolerance was evaluated one week after spraying. A rating of “+” was assigned to plants that were completely bleached in the actively growing tissue. A rating of “++” was assigned to plants having slight tolerance, i.e., the newest plant tissues had some green and are not bleached completely. A rating of “+++” was assigned to plants showing very little effect from spray, i.e., some chlorosis or very slight bleaching was present.

[11] = system: E. coli cells expressing HPPDs; assay: Plating whole E. coli cells expressing HPPDs on media containing HPPD inhibitors; assay type: cell-based; conditions: whole E. coli cells on plates with 250 uM inhibitor, 18 hours at 37 degrees C
Procedure: Variants were also tested by plating whole E. coli cells expressing HPPDs on media containing various HPPD inhibitors. For these experiments, DH5alpha cells containing HPPD expressing plasmids were grown in LB media+kanamycin until an OD600 nm=0.5 was reached. Serial dilutions of cells were prepared in LB media+kanamycin corresponding to OD600 values of 0.016, 0.008, 0.004, and 0.002. Ten microliters of each dilution were plated in triplicate on plates containing no HPPD inhibitor, 250 uM TBT, 250 uM DKN and 250 uM mesotrione (MST). Plates were incubated for 18 hours at 37 degrees C.

[12] = system: HPPD; conditions: reaction stopped after 24 min
Procedure: Kon=K1 equals the association rate constant of the […] and Koff=K−1 equals the rate constant of the enzyme-inhibitor complex dissociation. Ki defines the inhibition constant. For the determination of the specific activity of the enzymes, samples were incubated, and the reaction was stopped after 24 min. The specific activity was estimated by μg of protein.
For the determination of the specific activity of the enzymes, samples were incubated, and the reaction was stopped after 24 min. The specific activity was estimated by μg of protein.
Samples were incubated, and the reaction was stopped after 24 min. The specific activity was estimated by μg of protein.

[13] = system: Soybean plants; assay: Field trials of soybean events expressing HPPD, post-emergent HPPD inhibitor application, phytotoxicity; assay type: in vivo; conditions: for events exhibiting less than or equal to 20% average phytotoxicity: T1 events, evaluated after 7 days; for events exhibiting less than or equal to 20% average phytotoxicity / events exhibiting less than or equal to 25% maximum phytotoxicity: post-emergent tembotrione 200 g ai/ha; for events exhibiting less than or equal to 25% maximum phytotoxicity: field trial United States (Minnesota); for events exhibiting less than or equal to 25% maximum phytotoxicity / events exhibiting less than or equal to 18% maximum phytotoxicity: T2; for events exhibiting less than or equal to 18% maximum phytotoxicity: field trial in Argentina, post-emergent isoxaflutole 210 g ai/ha
Source text: The plants were sprayed at the v2-v3 stage with 1× glufosinate. Five days after treatment with glufosinate, the surviving plants were sprayed with 2× tembotrione, 2× mesotrione, or 2× isoxaflutole and evaluated for phytotoxicity after 7 days.

[14] = system: HPPD
Procedure: For Km and Vmax value determinations the initial rates of the HPPD reaction at different substrate concentrations were determined from plots of HGA formed versus time and fitted to the Michaelis-Menten equation for unireactant enzymes using the ID Business Solutions Ltd. (www.idbs.com) XLfit software suite.
In below given Table 1, “Km” (Michaelis-Menten constant) means the kinetic parameter that is used to characterize an enzyme, and it is defined as the concentration of substrate that permits half maximal rate of the reaction. Km is further defined as the substrate concentration at which the reaction rate reaches half of its maximum value (Vmax/2) where Vmax has the meaning of being the maximum velocity of the reaction.

[15] = system: HPPD; conditions: Table 14
[16] = PfHPPDEvo36 extract titrated on 250 uM inhibitor
[17] = spectrophotometric method, Table 6

T2 sequence (P80064 other isoform, or with tags, fused parts or gaps with the stated changes): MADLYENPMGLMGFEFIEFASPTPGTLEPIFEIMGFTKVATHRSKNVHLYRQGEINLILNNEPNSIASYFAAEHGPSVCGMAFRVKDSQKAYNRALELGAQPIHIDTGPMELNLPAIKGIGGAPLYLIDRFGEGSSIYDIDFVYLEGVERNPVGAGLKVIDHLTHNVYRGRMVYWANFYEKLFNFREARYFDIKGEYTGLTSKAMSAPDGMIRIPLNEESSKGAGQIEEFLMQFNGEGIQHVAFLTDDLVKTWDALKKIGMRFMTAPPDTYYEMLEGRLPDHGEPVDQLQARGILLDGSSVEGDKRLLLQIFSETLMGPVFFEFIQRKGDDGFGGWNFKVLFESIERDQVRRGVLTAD
T1 sequence (P80064 other isoform, or with tags, fused parts or gaps with the stated changes): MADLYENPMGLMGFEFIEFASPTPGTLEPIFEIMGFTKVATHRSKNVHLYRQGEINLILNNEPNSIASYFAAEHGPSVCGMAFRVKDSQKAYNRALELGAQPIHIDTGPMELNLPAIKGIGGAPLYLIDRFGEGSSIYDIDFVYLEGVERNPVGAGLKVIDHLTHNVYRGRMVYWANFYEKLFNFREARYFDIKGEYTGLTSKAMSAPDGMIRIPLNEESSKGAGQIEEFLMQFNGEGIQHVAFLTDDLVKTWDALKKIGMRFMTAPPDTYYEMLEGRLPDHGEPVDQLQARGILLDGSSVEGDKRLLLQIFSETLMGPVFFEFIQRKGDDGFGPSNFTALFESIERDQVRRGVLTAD
T5 sequence (P80064 other isoform, or with tags, fused parts or gaps with the stated changes): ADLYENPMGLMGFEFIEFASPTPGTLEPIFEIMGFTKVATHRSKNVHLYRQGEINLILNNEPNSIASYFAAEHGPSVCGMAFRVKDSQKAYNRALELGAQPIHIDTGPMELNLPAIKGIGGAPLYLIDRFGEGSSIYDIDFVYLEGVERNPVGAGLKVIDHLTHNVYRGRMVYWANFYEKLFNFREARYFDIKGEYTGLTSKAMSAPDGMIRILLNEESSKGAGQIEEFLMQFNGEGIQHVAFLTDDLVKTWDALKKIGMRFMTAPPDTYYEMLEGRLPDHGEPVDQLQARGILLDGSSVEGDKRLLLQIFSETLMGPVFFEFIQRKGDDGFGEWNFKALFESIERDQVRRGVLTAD
Sequence of Pseudomonas aeruginosa HPPD Axmi305H (SEQ ID NO:57) variant Axmi305H-Evo41 (Q9I576 whole entry E337P/G338W/K341A/A342Q): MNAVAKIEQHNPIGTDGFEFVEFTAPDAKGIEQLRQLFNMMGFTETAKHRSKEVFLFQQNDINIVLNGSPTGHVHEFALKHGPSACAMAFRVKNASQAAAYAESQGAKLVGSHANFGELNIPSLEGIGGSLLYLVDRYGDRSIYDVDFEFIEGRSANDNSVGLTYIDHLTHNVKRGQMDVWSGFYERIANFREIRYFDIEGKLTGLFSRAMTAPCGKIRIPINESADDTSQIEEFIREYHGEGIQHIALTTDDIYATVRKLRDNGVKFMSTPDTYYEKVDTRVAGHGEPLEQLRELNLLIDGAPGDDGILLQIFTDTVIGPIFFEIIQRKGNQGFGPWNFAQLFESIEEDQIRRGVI
Sequence of Pseudomonas aeruginosa (strain ATX22717) HPPD Axmi305H, native, SEQ ID NO:57 (Q9I576 whole entry): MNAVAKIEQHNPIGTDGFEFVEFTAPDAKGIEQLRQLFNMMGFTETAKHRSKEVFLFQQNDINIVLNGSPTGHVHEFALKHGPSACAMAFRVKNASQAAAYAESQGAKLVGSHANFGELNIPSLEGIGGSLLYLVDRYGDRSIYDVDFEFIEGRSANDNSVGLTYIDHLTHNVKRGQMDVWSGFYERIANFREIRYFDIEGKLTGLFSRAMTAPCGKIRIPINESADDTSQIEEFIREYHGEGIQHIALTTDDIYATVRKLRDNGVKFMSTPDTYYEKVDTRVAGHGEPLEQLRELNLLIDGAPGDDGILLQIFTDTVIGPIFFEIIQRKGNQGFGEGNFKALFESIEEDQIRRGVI

Molecule: CS(=O)(=O)c1ccc(C(=O)C2C(=O)CCCC2=O)c([N+](=O)[O-])c1 [Mesotrione, 2-[4-(methylsulfonyl)-2-nitrobenzoyl]-1,3-cyclohexanedione]
- IC50 [1]: 200 nM
- IC50 [2]: 2 µM
- IC50 [3]: 3.98 µM

Molecule: CS(=O)(=O)c1cc(C(F)(F)F)ccc1C(=O)C(C#N)C(=O)C1CC1 (centres unmarked) [Diketonitrile, 2-cyano-3-cyclopropyl-1-(2-methylsulphonyl-4-trifluoromethylphenyl)-propane-1,3-dione]
- improved tolerance compared to PfG336W [4]: 16 ×
- improved tolerance compared to PfHPPDEvo33 [4]: 4 ×
- IC50 [5]: 10 µM
- IC50 [2]: 50.1 µM
- IC50 [3]: 20 µM
- IC50 [6]: 31.6 µM
- IC50 [7]: 100 µM

Molecule: CS(=O)(=O)c1ccc(C(=O)C2C(=O)CCCC2=O)c(Cl)c1COCC(F)(F)F [Tembotrione, 2-[2-chloro-4-(methylsulfonyl)-3-[(2,2,2,-tri-fluoroethoxy)methyl]benzoyl]-1,3-cyclo-hexanedione]
- improved tolerance compared to PfG336W [4, 16]: 16 ×
- improved tolerance compared to PfHPPDEvo33 [4, 16]: 4 ×
- IC50 [8]: 10 µM
- IC50 [9]: 15.8 µM
- IC50 [7]: 15.8 µM

B1: PfHPPDEvo40: HPPD variant SEQ ID NO:8 (protein)
chain: MADLYENPMGLMGFEFIEFASPTPGTLEPIFEIMGFTKVATHRSKNVHLYRQGEINLILNNEPNSIASYFAAEHGPSVCGMAFRVKDSQKAYNRALELGAQPIHIDTGPMELNLPAIKGIGGAPLYLIDRFGEGSSIYDIDFVYLEGVERNPVGAGLKVIDHLTHNVYRGRMVYWANFYEKLFNFREARYFDIKGEYTGLTSKAMSAPDGMIRIPLNEESSKGAGQIEEFLMQFNGEGIQHVAFLTDDLVKTWDALKKIGMRFMTAPPDTYYEMLEGRLPDHGEPVDQLQARGILLDGSSVEGDKRLLLQIFSETLMGPVFFEFIQRKGDDGFGPSNFKELFESIERDQVRRGVLTAD
modifications: HPPD mutant - PfHPPDEvo40
- Percent ++ or +++ [10]: 31.4%
- Number of plants rated + [10]: 60
- Number of plants rated ++ or +++ [10]: 65
- tolerance to TBT and MST compared to PfG336W [11]: improved tolerance
- Specific activity [12, 17]: 0.42 Delta Absorbance/24 min/μg pro

B2: PfG336W: Pseudomonas fluorescens HPPD mutant, glycine at position 336 replaced by tryptophan, SEQ ID NO:2 (protein)
chain: MADLYENPMGLMGFEFIEFASPTPGTLEPIFEIMGFTKVATHRSKNVHLYRQGEINLILNNEPNSIASYFAAEHGPSVCGMAFRVKDSQKAYNRALELGAQPIHIDTGPMELNLPAIKGIGGAPLYLIDRFGEGSSIYDIDFVYLEGVERNPVGAGLKVIDHLTHNVYRGRMVYWANFYEKLFNFREARYFDIKGEYTGLTSKAMSAPDGMIRIPLNEESSKGAGQIEEFLMQFNGEGIQHVAFLTDDLVKTWDALKKIGMRFMTAPPDTYYEMLEGRLPDHGEPVDQLQARGILLDGSSVEGDKRLLLQIFSETLMGPVFFEFIQRKGDDGFGEWNFKALFESIERDQVRRGVLTAD
modifications: HPPD mutant - PfG336W
- Percent ++ or +++ [10]: 7.12%
- Number of plants rated + [10]: 811
- Number of plants rated ++ or +++ [10]: 160
- events exhibiting less than or equal to 20% average phytotoxicity [13]: 0 out of 18
- events exhibiting less than or equal to 25% maximum phytotoxicity [13]: 1 out of 11
- events exhibiting less than or equal to 18% maximum phytotoxicity [13]: 1 out of 3
- Specific activity ([12]; Table 1): 0.40 ΔE/24 min μg Protein
- Specific activity [12, 17]: 0.4 Delta Absorbance/24 min/μg pro

B3: PfHPPDEvo36: HPPD variant SEQ ID NO:7; 335 serine, 336 serine, 339 threonine, 340 glutamine relative to PfG336W (protein)
chain: MADLYENPMGLMGFEFIEFASPTPGTLEPIFEIMGFTKVATHRSKNVHLYRQGEINLILNNEPNSIASYFAAEHGPSVCGMAFRVKDSQKAYNRALELGAQPIHIDTGPMELNLPAIKGIGGAPLYLIDRFGEGSSIYDIDFVYLEGVERNPVGAGLKVIDHLTHNVYRGRMVYWANFYEKLFNFREARYFDIKGEYTGLTSKAMSAPDGMIRIPLNEESSKGAGQIEEFLMQFNGEGIQHVAFLTDDLVKTWDALKKIGMRFMTAPPDTYYEMLEGRLPDHGEPVDQLQARGILLDGSSVEGDKRLLLQIFSETLMGPVFFEFIQRKGDDGFGSSNFTQLFESIERDQVRRGVLTAD
modifications: HPPD mutant - PfHPPDEvo36
- Percent ++ or +++ [10]: 20.45%
- Number of plants rated + [10]: 47
- Number of plants rated ++ or +++ [10]: 18
- Specific activity [12, 17]: 0.82 Delta Absorbance/24 min/μg pro

B4: PfHPPDEvo41: HPPD variant SEQ ID NO:16 (protein)
chain: MADLYENPMGLMGFEFIEFASPTPGTLEPIFEIMGFTKVATHRSKNVHLYRQGEINLILNNEPNSIASYFAAEHGPSVCGMAFRVKDSQKAYNRALELGAQPIHIDTGPMELNLPAIKGIGGAPLYLIDRFGEGSSIYDIDFVYLEGVERNPVGAGLKVIDHLTHNVYRGRMVYWANFYEKLFNFREARYFDIKGEYTGLTSKAMSAPDGMIRIPLNEESSKGAGQIEEFLMQFNGEGIQHVAFLTDDLVKTWDALKKIGMRFMTAPPDTYYEMLEGRLPDHGEPVDQLQARGILLDGSSVEGDKRLLLQIFSETLMGPVFFEFIQRKGDDGFGPWNFAQLFESIERDQVRRGVLTAD
modifications: HPPD mutant - PfHPPDEvo41
- Percent ++ or +++ [10]: 32.75%
- Number of plants rated + [10]: 412
- Number of plants rated ++ or +++ [10]: 279
- events exhibiting less than or equal to 20% average phytotoxicity [13]: Nine out of 18
- events exhibiting less than or equal to 25% maximum phytotoxicity [13]: 7 out of 7
- events exhibiting less than or equal to 18% maximum phytotoxicity [13]: 5 out of 10
- tolerance to TBT and MST compared to PfG336W [11]: improved tolerance
- Km ([14]; Table 9, same values as Table 5): 336 µM
- Km ([14]; read-out: HPP Km, substrate HPP, Table 5): 336 µM
- HPP Kcat ([14]; substrate HPP, Table 5): 1.1 s⁻¹
- Km [15]: 336 µM
- Specific activity [12, 17]: 0.44 Delta Absorbance/24 min/μg pro
